From publication PMC11412978

Target: USP22 (ubiquitin-specific protease 22) (UniProt Q9UPT9)
Assay: co-IP of myc-MYH9 and Flag-USP22
Settings: reference: wild-type MYH9; sites S1943

- binding against the reference: lost
Substance: MYH9 (non-muscle myosin heavy chain 9) (from UniProt P35579) MYH9-S1943A
